In patent US6897196B1, “pH sensitive lipids based on ortho ester linkers, composition and method” (The Regents of the University of California, priority 2001, dated 2005):

Tests used:
[1] = Acid sensitivity of POD as monitored by thin layer chromatography; assay type: physicochemical; conditions: for degradation of POD (disappearance of the compound spot at Rf~0.4): within one hour
Protocol: Conical polystyrene microcentrifuge tubes (0.5 mL) containing 20 μL 100 mM sodium phosphate buffer of different pH were pre-warmed at 37° C. for 30 min and silica gel TLC plates (WhatmanCE from Whatman Ltd, Maidstoned, Kent, England) were pre-equilibrated with the solvent system (CHCl3/MeOH/NH4OH=100:15:1) by running the plates without samples followed by brief air-drying. Eight milligrams of POD was dissolved into 100 μL water by vortexing and 20 μL of the solution was added into each of the pre-warmed tubes and mixed thoroughly. The tubes were incubated at 37° C. and 10 μL of the solutions were aliquoted at different time points and mixed with 10 μL of 10% concentrated NH4OH (30% w/w) in acetone to stop the hydrolysis. Five microliters of the mixture was spotted onto pre-equilibrated TLC plates. Three microliters of distearoyl glycerol, monomethyl ether of PEG2000 and POD in 10 mg1 mL CHCl3 solution were also spotted as standards. TLC plates were developed, heated at 150° C. for 5 min and stained in I2 chamber for 1 h to observe the locations of POD and its degradation products.

[2] = Critical Micelle Concentration of POD dispersion; assay type: physicochemical; conditions: 150 mM Tris/CL buffer pH 9.0
Protocol: In one example 10 μmoles of methoxypolyethylene glycol 2000-diortho ester-distearoyl glycerol conjugate was dried from a chloroform solution unto the sides of a glass vessel. […] Under these conditions the POD has a Critical Micelle Concentration (CMC) of about 10 μM and micelles will be formed. An aliquot of 0.05 mL of the POD micelles is added to 1 mL of a 10 mM (total lipid) liposome suspension consisting of DSPC:Chol in the mole ratio of 55:40 in a 0.14 M NaCl-10 mM Tris, pH 8.0 buffer. The mixture is incubated at 37° C. for 2 hours. After this time the POD is incorporated into the liposome and the liposome can be injected into an animal.

## 3,9-Diethyl-3-(2,3-distearoyloxypropyloxy)-9-(methoxypolyethyleneglycol2000-1-yl)-2,4,8,10-tetraoxaspiro[5,5]undecane [POD]
[1]; buffer of neutral pH 7.4, 37° C., over 3 hours
  degradation of POD: most of the conjugate remained intact
[1]; buffer of pH 6, 37° C.
  approximate half-life of POD degradation: ~2.5 h
[1]; buffer pH 4, 37° C.
  degradation of POD (disappearance of the compound spot at Rf~0.4): completely degraded
[1]; buffer pH 5, 37° C.
  degradation of POD (disappearance of the compound spot at Rf~0.4): completely degraded
[2]
  Critical Micelle Concentration (CMC): about 10 μM
